Data: the Human Domainome abundance scans (Beltran et al. 2025)
± gives the uncertainty stated by the source.

Experiment: abundance fitness (aPCA) (normalised: wild type 0, dead -1); higher = more abundant; growth selection in yeast, the domain comes from the species named
Details: Homo sapiens

Substance	abundance fitness
BAG family molecular chaperone regulator 3 R19S, O95817	-0.006 ± 0.062
BAG family molecular chaperone regulator 3 R19T, O95817	-0.169 ± 0.096
BAG family molecular chaperone regulator 3 R19V, O95817	-0.221 ± 0.073
BAG family molecular chaperone regulator 3 R19W, O95817	-0.342 ± 0.073
BAG family molecular chaperone regulator 3 R19Y, O95817	-0.27 ± 0.094
BAG family molecular chaperone regulator 3 R45C, O95817	-0.165 ± 0.17
BAG family molecular chaperone regulator 3 R45D, O95817	-0.557 ± 0.32
BAG family molecular chaperone regulator 3 R45E, O95817	-0.422 ± 0.2
BAG family molecular chaperone regulator 3 R45F, O95817	-0.4 ± 0.087
BAG family molecular chaperone regulator 3 R45G, O95817	-0.087 ± 0.085
BAG family molecular chaperone regulator 3 R45H, O95817	0.367 ± 0.25
BAG family molecular chaperone regulator 3 R45K, O95817	-0.043 ± 0.077
BAG family molecular chaperone regulator 3 R45L, O95817	-0.594 ± 0.18
BAG family molecular chaperone regulator 3 R45M, O95817	-0.442 ± 0.2
BAG family molecular chaperone regulator 3 R45N, O95817	0.54 ± 0.18
BAG family molecular chaperone regulator 3 R45P, O95817	-0.321 ± 0.35
BAG family molecular chaperone regulator 3 R45Q, O95817	0.541 ± 0.17
BAG family molecular chaperone regulator 3 R45S, O95817	-0.354 ± 0.084
BAG family molecular chaperone regulator 3 R45T, O95817	-0.409 ± 0.28
BAG family molecular chaperone regulator 3 R45V, O95817	-0.692 ± 0.091
BAG family molecular chaperone regulator 3 R45W, O95817	-0.843 ± 0.18
BAG family molecular chaperone regulator 3 R45Y, O95817	-0.229 ± 0.22
BAG family molecular chaperone regulator 3 R53A, O95817	-0.422 ± 0.14

Substance	abundance fitness
BAG family molecular chaperone regulator 3 R53C, O95817	-0.551 ± 0.23
BAG family molecular chaperone regulator 3 R53D, O95817	-0.822 ± 0.49
BAG family molecular chaperone regulator 3 R53E, O95817	-0.646 ± 0.14
BAG family molecular chaperone regulator 3 R53G, O95817	-0.295 ± 0.09
BAG family molecular chaperone regulator 3 R53H, O95817	-0.611 ± 0.3
BAG family molecular chaperone regulator 3 R53K, O95817	-0.424 ± 0.28
BAG family molecular chaperone regulator 3 R53L, O95817	-0.732 ± 0.09
BAG family molecular chaperone regulator 3 R53M, O95817	-0.296 ± 0.25
BAG family molecular chaperone regulator 3 R53N, O95817	-0.257 ± 0.44
BAG family molecular chaperone regulator 3 R53P, O95817	-0.653 ± 0.083
BAG family molecular chaperone regulator 3 R53S, O95817	-0.523 ± 0.18
BAG family molecular chaperone regulator 3 R53T, O95817	-0.225 ± 0.25
BAG family molecular chaperone regulator 3 R53V, O95817	-0.715 ± 0.22
BAG family molecular chaperone regulator 3 R53W, O95817	-0.861 ± 0.14
BAG family molecular chaperone regulator 3 R53Y, O95817	-0.788 ± 0.14
BAG family molecular chaperone regulator 3 S14A, O95817	-0.285 ± 0.14
BAG family molecular chaperone regulator 3 S14C, O95817	-0.542 ± 0.42
BAG family molecular chaperone regulator 3 S14D, O95817	0.102 ± 0.14
BAG family molecular chaperone regulator 3 S14E, O95817	0.233 ± 0.085
BAG family molecular chaperone regulator 3 S14F, O95817	-0.528 ± 0.28
BAG family molecular chaperone regulator 3 S14G, O95817	-0.641 ± 0.1
BAG family molecular chaperone regulator 3 S14H, O95817	0.623 ± 0.12
BAG family molecular chaperone regulator 3 S14I, O95817	0.059 ± 0.23

Substance	abundance fitness
BAG family molecular chaperone regulator 3 S14K, O95817	0.023 ± 0.28
BAG family molecular chaperone regulator 3 S14L, O95817	0.091 ± 0.11
BAG family molecular chaperone regulator 3 S14M, O95817	-0.022 ± 0.2
BAG family molecular chaperone regulator 3 S14N, O95817	-0.156 ± 0.17
BAG family molecular chaperone regulator 3 S14P, O95817	-0.269 ± 0.19
BAG family molecular chaperone regulator 3 S14Q, O95817	0.677 ± 0.15
BAG family molecular chaperone regulator 3 S14T, O95817	-0.084 ± 0.19
BAG family molecular chaperone regulator 3 S14V, O95817	-0.219 ± 0.14
BAG family molecular chaperone regulator 3 S14W, O95817	-0.576 ± 0.23
BAG family molecular chaperone regulator 3 S14Y, O95817	-0.113 ± 0.15
BAG family molecular chaperone regulator 3 S44C, O95817	-0.688 ± 0.31
BAG family molecular chaperone regulator 3 S44D, O95817	-0.557 ± 0.47
BAG family molecular chaperone regulator 3 S44E, O95817	-0.489 ± 0.17
BAG family molecular chaperone regulator 3 S44F, O95817	-0.682 ± 0.29
BAG family molecular chaperone regulator 3 S44G, O95817	-0.483 ± 0.11
BAG family molecular chaperone regulator 3 S44H, O95817	-0.481 ± 0.37
BAG family molecular chaperone regulator 3 S44K, O95817	-0.7 ± 0.43
BAG family molecular chaperone regulator 3 S44L, O95817	-0.246 ± 0.17
BAG family molecular chaperone regulator 3 S44M, O95817	-0.371 ± 0.15
BAG family molecular chaperone regulator 3 S44N, O95817	-0.035 ± 0.25
BAG family molecular chaperone regulator 3 S44Q, O95817	-0.44 ± 0.29
BAG family molecular chaperone regulator 3 S44R, O95817	-0.335 ± 0.08
BAG family molecular chaperone regulator 3 S44T, O95817	0.209 ± 0.11

Substance	abundance fitness
BAG family molecular chaperone regulator 3 S44W, O95817	-0.86 ± 0.17
BAG family molecular chaperone regulator 3 S44Y, O95817	-0.485 ± 0.39
BAG family molecular chaperone regulator 3 S56A, O95817	-0.146 ± 0.12
BAG family molecular chaperone regulator 3 S56C, O95817	-0.13 ± 0.18
BAG family molecular chaperone regulator 3 S56E, O95817	-0.24 ± 0.25
BAG family molecular chaperone regulator 3 S56F, O95817	-0.205 ± 0.13
BAG family molecular chaperone regulator 3 S56G, O95817	-0.011 ± 0.063
BAG family molecular chaperone regulator 3 S56H, O95817	-0.411 ± 0.37
BAG family molecular chaperone regulator 3 S56I, O95817	0.304 ± 0.1
BAG family molecular chaperone regulator 3 S56K, O95817	-0.136 ± 0.29
BAG family molecular chaperone regulator 3 S56L, O95817	-0.125 ± 0.14
BAG family molecular chaperone regulator 3 S56M, O95817	0.083 ± 0.12
BAG family molecular chaperone regulator 3 S56N, O95817	0.103 ± 0.19
BAG family molecular chaperone regulator 3 S56P, O95817	-0.572 ± 0.27
BAG family molecular chaperone regulator 3 S56R, O95817	0.007 ± 0.063
BAG family molecular chaperone regulator 3 S56T, O95817	0.208 ± 0.16
BAG family molecular chaperone regulator 3 S56V, O95817	0.08 ± 0.1
BAG family molecular chaperone regulator 3 S56W, O95817	-0.473 ± 0.13
BAG family molecular chaperone regulator 3 S56Y, O95817	0.376 ± 0.3
BAG family molecular chaperone regulator 3 T34A, O95817	0.131 ± 0.12
BAG family molecular chaperone regulator 3 T34C, O95817	-0.073 ± 0.13
BAG family molecular chaperone regulator 3 T34E, O95817	-0.183 ± 0.19
